# Assay results from article PMC4192534.
# Tests used:
# [1] = biological target: FGF2-C-His (C-terminal 6xHis tagged 18 kDa human FGF2) (human) (UniProt P09038); test: AlphaScreen or HTRF; N-N orientation: FGF2-C-His bound to both Ni chelate donor and acceptor beads, increasing FGF2-C-His (0-75.5 µM)
# [2] = biological target: FGF2-C-His (C-terminal 6xHis tagged 18 kDa human FGF2) (human) (UniProt P09038); test: AlphaScreen or HTRF; N-N orientation, competition: 1 µM FGF2-C-His on Ni chelate donor and acceptor beads with increasing competitor
# [3] = biological target: FGF2-C-His (C-terminal 6xHis tagged 18 kDa human FGF2) (human) (UniProt P09038); test: AlphaScreen or HTRF; C-N orientation, competition: 50 nM FGF2-N-GST and 50 nM FGF2-C-His with increasing competitor, added 30 min before the beads; signal as percent of control without competitor
EC50 [1] [nM],IC50 [2] [nM],IC50 [3] [nM],Substance
6350,,,FGF2-C-His (C-terminal 6xHis tagged 18 kDa human FGF2) (from UniProt P09038-2 1-155) (natural protein)
,620,,FGF2-N-GST (N-terminal GST tagged 18 kDa human FGF2) (from UniProt P09038-2 1-155) (natural protein)
,,180,Tag-less FGF2 (from UniProt P09038 143-288) (natural protein)
,9560,265,platelet factor 4 (PF4) (natural protein)
